T1: AAAASKR
T1 chain: AAAASKR

T2: AAKKSAA
T2 chain: AAKKSAA

T3: AAKRSAA
T3 chain: AAKRSAA

T4: AARASAA
T4 chain: AARASAA

T5: AKAASAA
T5 chain: AKAASAA

T6: AKRASAA
T6 chain: AKRASAA

T7: AKRASEA
T7 chain: AKRASEA

T8: AKRASPA
T8 chain: AKRASPA

T9: AKRESAA
T9 chain: AKRESAA

T10: AKRKSAA
T10 chain: AKRKSAA

T11: AKRPSAA
T11 chain: AKRPSAA

T12: ARKASAA
T12 chain: ARKASAA

T13: ARRASAA
T13 chain: ARRASAA

T14: EKRASAA
T14 chain: EKRASAA

T15: KKAASAA
T15 chain: KKAASAA

T16: KKRASAA
T16 chain: KKRASAA

T17: KKRKSAA
T17 chain: KKRKSAA

T18: PKRASAA
T18 chain: PKRASAA

T19: RKKKSAA
T19 chain: RKKKSAA

B1: γ-PAK activated by autophosphorylation in the presence of Cdc42(GTPγS) (protein)
chain: SDNGELEDKPPAPPVRMSSTIFSTGGKDPLSANHSLKPLPSVPEEKKPRNKIISIFSGTEKGSKKKEKERPEISPPSDFEHTIHVGFDAVTGEFTGMPEQWARLLQTSNITKLEQKKNPQAVLDVLKFYDSNTVKQKYLSFTPPEKDGFPSGAPALNTKVSETSAVVTEEDDDDEEAAPPVIAPRPDHTKSIYTRSVIDPIPAPVGDSHVDSGAKSSDKQKKKTKMTDEEIMEKLRTIVSIGDPKKKYTRYEKIGQGASGTVFTATDVALGQEVAIKQINLQKQPKKELIINEILVMKELKNPNIVNFLDSYLVGDELFVVMEYLAGGSLTDVVTETCMDEAQIAAVCRECLQALEFLHANQVIHRDIKSDNVLLGMEGSVKLTDFGFCAQITPEQSKRSTMVGTPYWMAPEVVTRKAYGPKVDIWSLGIMAIEMVEGEPPYLNENPLRALYLIATNGTPELQNPEKLSPIFRDFLNRCLEMDVEKRGSAKELLQHPFLKLAKPLSSLTPLIMAAKEAMKSNR
B2: Inactive γ-PAK (protein)
chain: B1 chain

Experiments:
[1] = biological target: T1, AAAASKR
[2] = biological target: T2, AAKKSAA
[3] = biological target: T3, AAKRSAA
[4] = biological target: T4, AARASAA
[5] = biological target: T5, AKAASAA
[6] = biological target: T6, AKRASAA
[7] = biological target: T7, AKRASEA
[8] = biological target: T8, AKRASPA
[9] = biological target: T9, AKRESAA
[10] = biological target: T10, AKRKSAA
[11] = biological target: T11, AKRPSAA
[12] = biological target: T12, ARKASAA
[13] = biological target: T13, ARRASAA
[14] = biological target: T14, EKRASAA
[15] = biological target: T15, KKAASAA
[16] = biological target: T16, KKRASAA
[17] = biological target: T17, KKRKSAA
[18] = biological target: T18, PKRASAA
[19] = biological target: T19, RKKKSAA
[20] = biological target: all peptides

| Protein | rel rate (%), Cdc42-activated (KKRKSAA = 100) [1] [%] | rel rate (%), Cdc42-activated (KKRKSAA = 100) [2] [%] | rel rate (%), Cdc42-activated (KKRKSAA = 100) [3] [%] | rel rate (%), Cdc42-activated (KKRKSAA = 100) [4] [%] | rel rate (%), Cdc42-activated (KKRKSAA = 100) [5] [%] | rel rate (%), Cdc42-activated (KKRKSAA = 100) [6] [%] | rel rate (%), Cdc42-activated (KKRKSAA = 100) [7] [%] | rel rate (%), Cdc42-activated (KKRKSAA = 100) [8] [%] | rel rate (%), Cdc42-activated (KKRKSAA = 100) [9] [%] | rel rate (%), Cdc42-activated (KKRKSAA = 100) [10] [%] | rel rate (%), Cdc42-activated (KKRKSAA = 100) [11] [%] | rel rate (%), Cdc42-activated (KKRKSAA = 100) [12] [%] | rel rate (%), Cdc42-activated (KKRKSAA = 100) [13] [%] | rel rate (%), Cdc42-activated (KKRKSAA = 100) [14] [%] | rel rate (%), Cdc42-activated (KKRKSAA = 100) [15] [%] | rel rate (%), Cdc42-activated (KKRKSAA = 100) [16] [%] | rel rate (%), Cdc42-activated (KKRKSAA = 100) [17] [%] | rel rate (%), Cdc42-activated (KKRKSAA = 100) [18] [%] | rel rate (%), Cdc42-activated (KKRKSAA = 100) [19] [%] | activity relative to the activated forms [20] |
| --- | --- | --- | --- | --- | --- | --- | --- | --- | --- | --- | --- | --- | --- | --- | --- | --- | --- | --- | --- | --- |
| B1 | 0 | 0 | 0 | 56 | 3 | 189 | 88 | 3 | 295 | 158 | 11 | 9 | 134 | 151 | 3 | 181 | 100 | 184 | 3 | – |
| B2 | – | – | – | – | – | – | – | – | – | – | – | – | – | – | – | – | – | – | – | <5% of the activity of the activated forms with all peptides |
